This is an account of results in IntAct's records for PubMed 25910212.

The chains are these.
B1: Methylmalonyl-CoA epimerase, mitochondrial (Homo sapiens), Q96PE7 (parent)
chain: MARVLKAAAANAVGLFSRLQAPIPTVRASSTSQPLDQVTGSVWNLGRLNHVAIAVPDLEKAAAFYKNILGAQVSEAVPLPEHGVSVVFVNLGNTKMELLHPLGRDSPIAGFLQKNKAGGMHHICIEVDNINAAVMDLKKKKIRSLSEEVKIGAHGKPVIFLHPKDCGGVLVELEQA
B2: Polyunsaturated fatty acid 5-lipoxygenase (Homo sapiens), P09917 (parent)
chain: MPSYTVTVATGSQWFAGTDDYIYLSLVGSAGCSEKHLLDKPFYNDFERGAVDSYDVTVDEELGEIQLVRIEKRKYWLNDDWYLKYITLKTPHGDYIEFPCYRWITGDVEVVLRDGRAKLARDDQIHILKQHRRKELETRQKQYRWMEWNPGFPLSIDAKCHKDLPRDIQFDSEKGVDFVLNYSKAMENLFINRFMHMFQSSWNDFADFEKIFVKISNTISERVMNHWQEDLMFGYQFLNGCNPVLIRRCTELPEKLPVTTEMVECSLERQLSLEQEVQQGNIFIVDFELLDGIDANKTDPCTLQFLAAPICLLYKNLANKIVPIAIQLNQIPGDENPIFLPSDAKYDWLLAKIWVRSSDFHVHQTITHLLRTHLVSEVFGIAMYRQLPAVHPIFKLLVAHVRFTIAINTKAREQLICECGLFDKANATGGGGHVQMVQRAMKDLTYASLCFPEAIKARGMESKEDIPYYFYRDDGLLVWEAIRTFTAEVVDIYYEGDQVVEEDPELQDFVNDVYVYGMRGRKSSGFPKSVKSREQLSEYLTVVIFTASAQHAAVNFGQYDWCSWIPNAPPTMRAPPPTAKGVVTIEQIVDTLPDRGRSCWHLGAVWALSQFQENELFLGMYPEEHFIEKPVKEAMARFRKNLEAIVSVIAERNKKKQLPYYYLSPDRIPNSVAI
partner: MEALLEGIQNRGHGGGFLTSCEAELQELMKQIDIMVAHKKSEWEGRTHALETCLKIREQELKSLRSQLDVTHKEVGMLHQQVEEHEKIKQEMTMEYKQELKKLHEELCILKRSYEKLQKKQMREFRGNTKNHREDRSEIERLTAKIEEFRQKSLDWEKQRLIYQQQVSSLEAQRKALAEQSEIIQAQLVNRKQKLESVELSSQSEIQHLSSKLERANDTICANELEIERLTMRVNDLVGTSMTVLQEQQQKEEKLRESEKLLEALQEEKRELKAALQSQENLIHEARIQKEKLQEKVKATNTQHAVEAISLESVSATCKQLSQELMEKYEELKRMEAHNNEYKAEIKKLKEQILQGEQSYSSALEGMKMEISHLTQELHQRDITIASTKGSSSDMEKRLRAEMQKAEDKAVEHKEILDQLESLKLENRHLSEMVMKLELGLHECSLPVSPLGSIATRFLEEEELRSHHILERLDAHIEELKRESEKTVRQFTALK
B3: EF-hand domain-containing protein 1 (Homo sapiens), Q5JVL4 (parent)
chain: MVSNPVHGLPFLPGTSFKDSTKTAFHRSQTLSYRNGYAIVRRPTVGIGGDRLQFNQLSQAELDELASKAPVLTYGQPKQAPPADFIPAHVAFDKKVLKFDAYFQEDVPMSTEEQYRIRQVNIYYYLEDDSMSVIEPVVENSGILQGKLIKRQRLAKNDRGDHYHWKDLNRGINITIYGKTFRVVDCDQFTQVFLESQGIELNPPEKMALDPYTELRKQPLRKYVTPSDFDQLKQFLTFDKQVLRFYAIWDDTDSMYGECRTYIIHYYLMDDTVEIREVHERNDGRDPFPLLMNRQRVPKVLVENAKNFPQCVLEISDQEVLEWYTAKDFIVGKSLTILGRTFFIYDCDPFTRRYYKEKFGITDLPRIDVSKREPPPVKQELPPYNGFGLVEDSAQNCFALIPKAPKKDVIKMLVNDNKVLRYLAVLESPIPEDKDRRFVFSYFLATDMISIFEPPVRNSGIIGGKYLGRTKVVKPYSTVDNPVYYGPSDFFIGAVIEVFGHRFIILDTDEYVLKYMESNAAQYSPEALASIQNHVRKREAPAPEAESKQTEKDPGVQELEALIDTIQKQLKDHSCKDNIREAFQIYDKEASGYVDRDMFFKICESLNVPVDDSLVKELIRMCSHGEGKINYYNFVRAFSN
partner: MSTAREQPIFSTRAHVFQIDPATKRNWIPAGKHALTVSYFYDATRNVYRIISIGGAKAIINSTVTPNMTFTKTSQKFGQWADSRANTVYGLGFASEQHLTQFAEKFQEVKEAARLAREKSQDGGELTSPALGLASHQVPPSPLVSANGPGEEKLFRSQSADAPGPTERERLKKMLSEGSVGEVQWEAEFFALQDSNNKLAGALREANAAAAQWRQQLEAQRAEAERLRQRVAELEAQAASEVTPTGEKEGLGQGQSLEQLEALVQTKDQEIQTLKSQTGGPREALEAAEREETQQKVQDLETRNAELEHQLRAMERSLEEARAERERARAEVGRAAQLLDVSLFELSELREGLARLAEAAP
B4: Pyridoxine-5'-phosphate oxidase (Homo sapiens), Q9NVS9 (parent)
chain: MTCWLRGVTATFGRPAEWPGYLSHLCGRSAAMDLGPMRKSYRGDREAFEETHLTSLDPVKQFAAWFEEAVQCPDIGEANAMCLATCTRDGKPSARMLLLKGFGKDGFRFFTNFESRKGKELDSNPFASLVFYWEPLNRQVRVEGPVKKLPEEEAECYFHSRPKSSQIGAVVSHQSSVIPDREYLRKKNEELEQLYQDQEVPKPKSWGGYVLYPQVMEFWQGQTNRLHDRIVFRRGLPTGDSPLGPMTHRGEEDWLYERLAP
B5: U4/U6 small nuclear ribonucleoprotein Prp31 (Homo sapiens), Q8WWY3 (parent)
chain: MSLADELLADLEEAAEEEEGGSYGEEEEEPAIEDVQEETQLDLSGDSVKTIAKLWDSKMFAEIMMKIEEYISKQAKASEVMGPVEAAPEYRVIVDANNLTVEIENELNIIHKFIRDKYSKRFPELESLVPNALDYIRTVKELGNSLDKCKNNENLQQILTNATIMVVSVTASTTQGQQLSEEELERLEEACDMALELNASKHRIYEYVESRMSFIAPNLSIIIGASTAAKIMGVAGGLTNLSKMPACNIMLLGAQRKTLSGFSSTSVLPHTGYIYHSDIVQSLPPDLRRKAARLVAAKCTLAARVDSFHESTEGKVGYELKDEIERKFDKWQEPPPVKQVKPLPAPLDGQRKKRGGRRYRKMKERLGLTEIRKQANRMSFGEIEEDAYQEDLGFSLGHLGKSGSGRVRQTQVNEATKARISKTLQRTLQKQSVVYGGKSTIRDRSSGTASSVAFTPLQGLEIVNPQAAEKKVAEANQKYFSSMAEFLKVKGEKSGLMST
partner: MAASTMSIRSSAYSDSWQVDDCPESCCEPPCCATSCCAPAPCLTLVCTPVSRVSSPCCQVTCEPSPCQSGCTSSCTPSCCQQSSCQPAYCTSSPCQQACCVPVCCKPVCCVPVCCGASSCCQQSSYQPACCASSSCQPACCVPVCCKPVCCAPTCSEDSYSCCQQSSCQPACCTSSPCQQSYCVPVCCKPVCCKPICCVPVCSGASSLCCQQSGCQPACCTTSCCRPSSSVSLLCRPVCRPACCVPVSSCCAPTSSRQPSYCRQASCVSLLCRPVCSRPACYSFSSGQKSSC
B6: U4/U6 small nuclear ribonucleoprotein Prp31 (Homo sapiens), Q8WWY3 (parent)
chain: B5 chain
partner: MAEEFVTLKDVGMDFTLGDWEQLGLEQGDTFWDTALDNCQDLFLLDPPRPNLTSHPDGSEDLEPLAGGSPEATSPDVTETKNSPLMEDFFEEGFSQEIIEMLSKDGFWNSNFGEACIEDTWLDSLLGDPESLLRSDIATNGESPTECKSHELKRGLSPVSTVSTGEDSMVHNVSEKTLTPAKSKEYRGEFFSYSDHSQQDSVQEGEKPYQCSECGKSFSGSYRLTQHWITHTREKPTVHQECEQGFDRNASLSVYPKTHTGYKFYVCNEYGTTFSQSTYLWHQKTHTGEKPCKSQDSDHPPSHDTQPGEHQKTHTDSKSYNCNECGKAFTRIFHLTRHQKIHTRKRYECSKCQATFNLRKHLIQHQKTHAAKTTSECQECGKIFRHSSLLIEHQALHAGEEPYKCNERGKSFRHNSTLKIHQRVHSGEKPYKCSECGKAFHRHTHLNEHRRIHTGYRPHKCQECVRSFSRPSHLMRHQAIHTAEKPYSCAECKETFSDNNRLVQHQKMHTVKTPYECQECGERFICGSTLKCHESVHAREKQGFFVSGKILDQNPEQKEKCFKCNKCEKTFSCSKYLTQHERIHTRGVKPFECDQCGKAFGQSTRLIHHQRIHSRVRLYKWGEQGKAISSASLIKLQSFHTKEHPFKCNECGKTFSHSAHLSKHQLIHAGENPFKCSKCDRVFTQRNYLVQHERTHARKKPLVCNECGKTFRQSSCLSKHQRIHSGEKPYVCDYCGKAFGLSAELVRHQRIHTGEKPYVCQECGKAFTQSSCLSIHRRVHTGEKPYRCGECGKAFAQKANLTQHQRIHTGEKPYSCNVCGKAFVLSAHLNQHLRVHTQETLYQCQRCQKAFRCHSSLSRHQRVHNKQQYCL
B7: Inactive peptidyl-prolyl cis-trans isomerase FKBP6 (Homo sapiens), O75344 (parent)
chain: MGGSALNQGVLEGDDAPGQSLYERLSQRMLDISGDRGVLKDVIREGAGDLVAPDASVLVKYSGYLEHMDRPFDSNYFRKTPRLMKLGEDITLWGMELGLLSMRRGELARFLFKPNYAYGTLGCPPLIPPNTTVLFEIELLDFLDCAESDKFCALSAEQQDQFPLQKVLKVAATEREFGNYLFRQNRFYDAKVRYKRALLLLRRRSAPPEEQHLVEAAKLPVLLNLSFTYLKLDRPTIALCYGEQALIIDQKNAKALFRCGQACLLLTEYQKARDFLVRAQKEQPFNHDINNELKKLASCYRDYVDKEKEMWHRMFAPCGDGSTAGES
partner: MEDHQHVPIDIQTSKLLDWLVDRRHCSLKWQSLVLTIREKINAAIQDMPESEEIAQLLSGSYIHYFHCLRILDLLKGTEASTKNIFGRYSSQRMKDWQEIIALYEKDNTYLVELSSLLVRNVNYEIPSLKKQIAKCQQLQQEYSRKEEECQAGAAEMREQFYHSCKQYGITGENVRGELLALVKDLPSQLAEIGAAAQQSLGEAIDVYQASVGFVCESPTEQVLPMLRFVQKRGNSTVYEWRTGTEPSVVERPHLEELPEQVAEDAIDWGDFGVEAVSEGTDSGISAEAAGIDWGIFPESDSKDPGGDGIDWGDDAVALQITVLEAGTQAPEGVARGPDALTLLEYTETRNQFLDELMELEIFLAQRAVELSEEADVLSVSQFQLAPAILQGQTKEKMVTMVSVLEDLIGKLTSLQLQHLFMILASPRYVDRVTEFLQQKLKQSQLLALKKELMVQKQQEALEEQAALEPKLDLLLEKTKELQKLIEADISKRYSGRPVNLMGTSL

One experiment covers variants of B1. Conditions: with AGTRAP.
Target sequence in this assay (Q6RW13 other isoform, or with tags, fused parts or gaps): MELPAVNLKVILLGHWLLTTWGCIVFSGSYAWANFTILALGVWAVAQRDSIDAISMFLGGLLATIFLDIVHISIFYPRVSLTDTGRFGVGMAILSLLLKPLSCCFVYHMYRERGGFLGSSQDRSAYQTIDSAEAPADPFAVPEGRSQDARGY
Consider A76V, for which the “effect of a mutation on the interaction” value is recorded as “with no effect”.

Variants of B1 are the subject of a further experiment. Particulars: with CMTM5, Q96DZ9-2.
Target sequence in this assay (Q96DZ9 other isoform, or with tags, fused parts or gaps): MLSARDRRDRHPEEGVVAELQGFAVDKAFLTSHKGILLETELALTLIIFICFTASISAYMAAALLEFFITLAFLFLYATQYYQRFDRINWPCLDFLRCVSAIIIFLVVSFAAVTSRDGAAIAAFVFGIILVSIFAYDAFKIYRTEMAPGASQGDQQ
Turning to A76V, the “effect of a mutation on the interaction” value is “with no effect”.

The variants in another experiment derive from B2. Conditions: with CEP63, Q96MT8-3.
Regarding E254K, the “effect of a mutation on the interaction” value was “with no effect”.

In another experiment the parent is B3. Particulars: with home3_human HOMER3, Q9NSC5.
On to T508R, for which the “effect of a mutation on the interaction” value is on record as “with no effect”. The same measure, in the same setting: then M448T, with “with no effect”. In the case of P77T, the “effect of a mutation on the interaction” value is listed as “disrupting interaction strength”. For the variant R221H, the “effect of a mutation on the interaction” value was “disrupting interaction strength”. On to A394S, for which the “effect of a mutation on the interaction” value is listed as “disrupting interaction strength”.

Take R159W: the “effect of a mutation on the interaction” value is “with no effect”.

Variants of B4 are the subject of a further experiment. Conditions: with AGTRAP.
Target sequence in this assay (Q6RW13 other isoform, or with tags, fused parts or gaps): as the sequence (Q6RW13 other isoform, or with tags, fused parts or gaps) above
Consider R116Q, for which the “effect of a mutation on the interaction” value was “with no effect”. With R95H, the “effect of a mutation on the interaction” value is recorded as “disrupting interaction strength”. As to R95C, the “effect of a mutation on the interaction” value is “disrupting interaction strength”.

As for R229W, the “effect of a mutation on the interaction” value is reported as “disrupting interaction strength”.

The variants in a further experiment derive from B4. Conditions: with CMTM5, Q96DZ9-2.
Target sequence in this assay (Q96DZ9 other isoform, or with tags, fused parts or gaps): as the sequence (Q96DZ9 other isoform, or with tags, fused parts or gaps) above
Take R116Q: the “effect of a mutation on the interaction” value was “with no effect”. Turning to R95H, the “effect of a mutation on the interaction” value is listed as “disrupting interaction strength”. The same measure, in the same setting: with R95C the entry was “disrupting interaction strength”; with R229W, “disrupting interaction strength”.

The variants in another experiment derive from B5. Particulars: with kr109_human KRTAP10-9, P60411.
Take L107V: the “effect of a mutation on the interaction” value is reported as “with no effect”.

A further experiment covers variants of B6. Particulars: with zn473_human ZNF473, Q8WTR7.
In the case of L107V, the “effect of a mutation on the interaction” value is reported as “with no effect”.

The variants in a further experiment derive from B7. Conditions: with ck5p3_human CDK5RAP3, Q96JB5.
For R202H, the “effect of a mutation on the interaction” value is on record as “with no effect”. As to F72L, the “effect of a mutation on the interaction” value is “disrupting interaction strength”.
